Test results published in patent US20120009162A1 (published 2012).

Target: T1, Aurora-A kinase (Aur-A) peptide on HLA-A*02:01 (human)
T1 peptide: YLILEYAPL
Experiment: multimer staining

B1: TCR of the Aur-A-specific CTL clone AUR-1 (SEQ ID NOs 1 and 2) (TCR, V domains shown)
Valpha: AQSVAQPEDQVNVAEGNPLTVKCTYSVSGNPYLFWYVQYPNRGLQFLLKYITGDNLVKGSYGFEAEFNKSQTSFHLKKPSALVSDSALYFCAVRDSNSNDYKLSFGAGTTVTVRA
Vbeta: DAGITQSPRHKVTETGTPVTLRCHQTENHRYMYWYRQDPGHGLRLIHYSYGVKDTDKGEVSDGYSVSRSKTEDFLLTLESATSSQTSVYFCAISESSFAQPMNTEAFFGQGTRLTVV
binding result: recognises
